This test concerns the target CD30 on CD30+ lymphoma cell lines (UniProt P28908). Nature of the test: cell-based or functional assay.
Sequence of UniProt P28908 (P28908 19-595 limits assumed): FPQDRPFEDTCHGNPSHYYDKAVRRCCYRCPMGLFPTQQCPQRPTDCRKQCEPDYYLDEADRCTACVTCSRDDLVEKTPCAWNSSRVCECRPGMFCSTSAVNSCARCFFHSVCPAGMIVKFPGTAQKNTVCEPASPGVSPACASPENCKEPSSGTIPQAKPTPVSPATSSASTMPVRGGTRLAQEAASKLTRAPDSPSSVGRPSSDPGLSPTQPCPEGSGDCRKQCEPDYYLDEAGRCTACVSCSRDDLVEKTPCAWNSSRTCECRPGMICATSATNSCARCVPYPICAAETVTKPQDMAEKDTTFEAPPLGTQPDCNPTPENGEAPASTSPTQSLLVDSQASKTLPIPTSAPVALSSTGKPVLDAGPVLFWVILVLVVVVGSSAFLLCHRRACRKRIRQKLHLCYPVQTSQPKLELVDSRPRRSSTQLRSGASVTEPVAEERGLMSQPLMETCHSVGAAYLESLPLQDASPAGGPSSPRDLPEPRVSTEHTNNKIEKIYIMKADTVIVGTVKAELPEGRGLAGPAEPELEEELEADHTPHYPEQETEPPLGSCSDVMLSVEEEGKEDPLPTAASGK

For “bispecific tetravalent CD30/CD16A tandem diabody AFM13 (bispecific antibody)”, the specific lysis of CD30+ tumor cells by NK cells, 4-hour 51Cr release assay was determined as 0.001 µg/mL.
